Measurements reported in PMC4559962, “Wss1 metalloprotease partners with Cdc48/Doa1 in processing genotoxic SUMO conjugates” (eLife, 2015).

B1: his6-Flag (HF)-Doa1 (natural protein, S. cerevisiae, UniProt P36037 1-715, looked up)
chain: MGYQLSATLKGHDQDVRDVVAVDDSKVASVSRDGTVRLWSKDDQWLGTVVYTGQGFLNSVCYDSEKELLLFGGKDTMINGVPLFATSGEDPLYTLIGHQGNVCSLSFQDGVVISGSWDKTAKVWKEGSLVYNLQAHNASVWDAKVVSFSENKFLTASADKTIKLWQNDKVIKTFSGIHNDVVRHLAVVDDGHFISCSNDGLIKLVDMHTGDVLRTYEGHESFVYCIKLLPNGDIVSCGEDRTVRIWSKENGSLKQVITLPAISIWSVDCMSNGDIIVGSSDNLVRIFSQEKSRWASEDEINELSTQVEKSTISSKTIEFDESKLSPYEILQSPGRKEGQIVVVKSPQGTIEAHQFSNSSWKKVGDVVGAGATGNDKKIEFEGKTYDYVFDVDIEDGKPPLKLPINVSDNPYTAADNFLARYELPMSYRDQVVQFILKNTNGISLDQPNDNASSSAVSPSKTSVMKVLPVKQYLIMENYNPDTIFNGIVKINSNEKTFDDEILAQIGGALHDIDESWELLLSFANTIRSNWEIKTPAYDIVRLIVKKLPYSSDIKDYIEEGLGNKNITLTMLTVRILVNCFNNENWGVKLLESNQVYKSIFETIDTEFSQASAKQSQNLAIAVSTLIFNYSALVTKGNSDLELLPIVADAINTKYGPLEEYQECEEAAYRLTVAYGNLATVEPTLRQFANSVTWLANIKRSYGNVPRFKDIFDDLS
notes: Doa1, Cdc48 cofactor
B2: GST-Cdc48 (full length) (enzyme, S. cerevisiae, UniProt P25694 1-835, looked up)
chain: MGEEHKPLLDASGVDPREEDKTATAILRRKKKDNMLLVDDAINDDNSVIAINSNTMDKLELFRGDTVLVKGKKRKDTVLIVLIDDELEDGACRINRVVRNNLRIRLGDLVTIHPCPDIKYATRISVLPIADTIEGITGNLFDVFLKPYFVEAYRPVRKGDHFVVRGGMRQVEFKVVDVEPEEYAVVAQDTIIHWEGEPINREDEENNMNEVGYDDIGGCRKQMAQIREMVELPLRHPQLFKAIGIKPPRGVLMYGPPGTGKTLMARAVANETGAFFFLINGPEVMSKMAGESESNLRKAFEEAEKNAPAIIFIDEIDSIAPKRDKTNGEVERRVVSQLLTLMDGMKARSNVVVIAATNRPNSIDPALRRFGRFDREVDIGIPDATGRLEVLRIHTKNMKLADDVDLEALAAETHGYVGADIASLCSEAAMQQIREKMDLIDLDEDEIDAEVLDSLGVTMDNFRFALGNSNPSALRETVVESVNVTWDDVGGLDEIKEELKETVEYPVLHPDQYTKFGLSPSKGVLFYGPPGTGKTLLAKAVATEVSANFISVKGPELLSMWYGESESNIRDIFDKARAAAPTVVFLDELDSIAKARGGSLGDAGGASDRVVNQLLTEMDGMNAKKNVFVIGATNRPDQIDPAILRPGRLDQLIYVPLPDENARLSILNAQLRKTPLEPGLELTAIAKATQGFSGADLLYIVQRAAKYAIKDSIEAHRQHEAEKEVKVEGEDVEMTDEGAKAEQEPEVDPVPYITKEHFAEAMKTAKRSVSDAELRRYEAYSQQMKASRGQFSNFNFNDAPLGTTATDNANSNNSAPSGAGAAFGSNAEEDDDLYS
notes: Cdc48, AAA ATPase; source: expressed in bacteria, purified
B4: MBP-Wss1 (wild type) (enzyme, S. cerevisiae, UniProt P38838 1-269, looked up)
chain: MKTEGIKSPSAKYHDMAGSQRIPHKNPHIQKVAVLQSKPNKEDALNLIKEIAHKVSYLMKENHFKVTNLVEFYPRDQRLLGMNVNHGSKIMLRLRCSTDEFQFLPMECIMGTMLHELTHNLFGPHDKKFYNKLDELIGRQWVIEQRGLYDTFLGNGQRLGGRANLRSNRYPMTGISTNTGIVRKRGKGVKLGSLHPEGISSIDRGNSPRELAAFAAERRYRDDRWCGETKNNKDQIISDNISSSLEVVILDDDDEVLPGDTLIEVIDLT
notes: Wss1, yeast metalloprotease; Expressed with the pMAL-c2 vector; also called MBP-Wss1 WT; Wss1-beads (CNBr-crosslinked MBP-Wss1 beads); source: E. coli BL21pLysS (DE3), purified on amylose resin, eluted with maltose

Assays:
Details in all cases: both partners purified
GST-Cdc48 (full length) = target: B2; assay: pull-down; Cdc48 complexes preformed from purified GST-Cdc48 with a double molar excess of adaptors; MBP-Wss1 added in stoichiometric amount; glutathione beads; PAGE with Coomassie staining, ImageJ
MBP-Wss1 (wild type) = target: B4; assay: pull-down; purified MBP-Wss1 proteins on amylose beads with purified Cdc48 or adaptor proteins; PAGE with Coomassie staining, western blot with α-His6, ImageJ
his6-Flag (HF)-Doa1 [1] = target: B1; assay: pull-down; purified HA-Wss1 (full length or truncated) on anti-HA beads with purified His6-Cdc48, GST-Cdc48 or HF-Doa1 (full length or truncated); western blot
his6-Flag (HF)-Doa1 [2] = target: B1; assay: pull-down; purified MBP-Wss1 proteins on amylose beads with purified Cdc48 or adaptor proteins; PAGE with Coomassie staining, western blot with α-His6, ImageJ

Binder: B1
- stoichiometry N (GST-Cdc48 (full length)): 1

Binder: B2
- stoichiometry N (MBP-Wss1 (wild type)): 1

B3: HA-Wss1 (recombinant, wild type) (enzyme, S. cerevisiae, UniProt P38838 1-269, looked up)
chain: MKTEGIKSPSAKYHDMAGSQRIPHKNPHIQKVAVLQSKPNKEDALNLIKEIAHKVSYLMKENHFKVTNLVEFYPRDQRLLGMNVNHGSKIMLRLRCSTDEFQFLPMECIMGTMLHELTHNLFGPHDKKFYNKLDELIGRQWVIEQRGLYDTFLGNGQRLGGRANLRSNRYPMTGISTNTGIVRKRGKGVKLGSLHPEGISSIDRGNSPRELAAFAAERRYRDDRWCGETKNNKDQIISDNISSSLEVVILDDDDEVLPGDTLIEVIDLT
notes: Wss1, yeast metalloprotease (WLM family); Produced with the pRSET-B vector; also called WT; WT-Wss1; source: E. coli ArcticExpress (DE3), soluble, purified on anti-HA beads and eluted with HA peptide
- binding result (his6-Flag (HF)-Doa1 [1]): binds

Binder: B4
- binding result (his6-Flag (HF)-Doa1 [2]): binds
- stoichiometry N (GST-Cdc48 (full length)): 1
